Biological target: EGF receptor (UniProt P00533 25-645)
Assay: MST

Kd: 384 ± 76.5 nM
B1: EGFL7 (natural protein, UniProt Q9UHF1 24-273, looked up)
chain: YRPGRRVCAVRAHGDPVSESFVQRVYQPFLTTCDGHRACSTYRTIYRTAYRRSPGLAPARPRYACCPGWKRTSGLPGACGAAICQPPCRNGGSCVQPGRCRCPAGWRGDTCQSDVDECSARRGGCPQRCVNTAGSYWCQCWEGHSLSADGTLCVPKGGPPRVAPNPTGVDSAMKEEVQRLQSRVDLLEEKLQLVLAPLHSLASQALEHGLPDPGSLLVHSFQQLGRIDSLSEQISFLEEQLGSCSCKKDS

Reference: publication PMC4325230 (Stem Cell Reports, 2015)
